B1: Homeobox protein cut-like 1, residues 941 to 1008; numbered along this chain, P39880 (parent)
chain: QEVDTIELTRQVKEKLAKNGICQRIFGEKVLGLSQGSVSDMLSRPKPWSKLTQKGREPFIRMQLWLNG

± gives the uncertainty stated by the source.

Variants of B1 are the subject of the series. The series is described as follows: abundance fitness (aPCA) (normalised: wild type 0, dead -1); higher = more abundant; growth selection in yeast, the domain comes from the species named. To be noted: Homo sapiens.
For the variant QEVDTIELTRQVKEKLAKNGICQRIFGEKVLGLSQGSVSDMLSRGKPWSKLTQKGREPFIRMQLWLNG, the abundance fitness was -0.309 ± 0.07. Under QEVDTIELTRQVKEKLAKNGICQRIFGEKVLGLSQGSVSDMLSRDKPWSKLTQKGREPFIRMQLWLNG stands -0.456 ± 0.11; under QEVDTIELTRQVKEKLAKNGICQRIFGEKVLGLSQGSVSDMLSRCKPWSKLTQKGREPFIRMQLWLNG, -0.123 ± 0.06. For QEVDTIELTRQVKEKLAKNGICQRIFGEKVLGLSQGSVSDMLSRFKPWSKLTQKGREPFIRMQLWLNG the value was -0.161 ± 0.073.

As to QEVDTIELTRQVKEKLAKNGICQRIFGEKVLGLSQGSVSDMLSRLKPWSKLTQKGREPFIRMQLWLNG, the abundance fitness is -0.202 ± 0.048. Consider QEVDTIELTRQVKEKLAKNGICQRIFGEKVLGLSQGSVSDMLSRNKPWSKLTQKGREPFIRMQLWLNG, for which the abundance fitness is -0.227 ± 0.097.

As to QEVDTIELTRQVKEKLAKNGICQRIFGEKVLGLSQGSVSDMLSRHKPWSKLTQKGREPFIRMQLWLNG, the abundance fitness is -0.124 ± 0.079.

In the case of QEVDTIELTRQVKEKLAKNGICQRIFGEKVLGLSQGSVSDMLSRWKPWSKLTQKGREPFIRMQLWLNG, the abundance fitness was -0.108 ± 0.072. Under QEVDTIELTRQVKEKLAKNGICQRIFGEKVLGLSQGSVSDMLTRPKPWSKLTQKGREPFIRMQLWLNG stands -0.01 ± 0.096; under QEVDTIELTRQVKEKLAKNGICQRIFGEKVLGLSQGSVSDMLYRPKPWSKLTQKGREPFIRMQLWLNG, -0.174 ± 0.083.

QEVDTIELTRQVKEKLAKNGICQRIFGEKVLGLSQGSVSDMLPRPKPWSKLTQKGREPFIRMQLWLNG: the abundance fitness is -0.304 ± 0.072.

Take QEVDTIELTRQVKEKLAKNGICQRIFGEKVLGLSQGSVSDMLFRPKPWSKLTQKGREPFIRMQLWLNG: the abundance fitness was -0.373 ± 0.083.

Take QEVDTIELTRQVKEKLAKNGICQRIFGEKVLGLSQGSVSDMLQRPKPWSKLTQKGREPFIRMQLWLNG: the abundance fitness stood at 0.029 ± 0.071. For QEVDTIELTRQVKEKLAKNGICQRIFGEKVLGLSQGSVSDMLHRPKPWSKLTQKGREPFIRMQLWLNG the value was 0.049 ± 0.1. For QEVDTIELTRQVKEKLAKNGICQRIFGEKVLGLSQGSVSDMLKRPKPWSKLTQKGREPFIRMQLWLNG the value was -0.028 ± 0.088.

As for QEVDTIELTRQVKEKLAKNGICQRIFGEKVLGLSQGSVSDMLGRPKPWSKLTQKGREPFIRMQLWLNG, the abundance fitness was -0.251 ± 0.055. Take QEVDTIELTRQVKEKLAKNGICQRIFGEKVLGLSQGSVSDMLIRPKPWSKLTQKGREPFIRMQLWLNG: the abundance fitness was -0.187 ± 0.11.

Regarding QEVDTIELTRQVKEKLAKNGICQRIFGEKVLGLSQGSVSDMLERPKPWSKLTQKGREPFIRMQLWLNG, the abundance fitness was found to be 0.014 ± 0.077. For QEVDTIELTRQVKEKLAKNGICQRIFGEKVLGLSQGSVSDMLNRPKPWSKLTQKGREPFIRMQLWLNG the value was 0.066 ± 0.1; for QEVDTIELTRQVKEKLAKNGICQRIFGEKVLGLSQGSVSDMLLRPKPWSKLTQKGREPFIRMQLWLNG, -0.139 ± 0.048; for QEVDTIELTRQVKEKLAKNGICQRIFGEKVLGLSQGSVSDMLVRPKPWSKLTQKGREPFIRMQLWLNG, -0.064 ± 0.055. For QEVDTIELTRQVKEKLAKNGICQRIFGEKVLGLSQGSVSDMLMRPKPWSKLTQKGREPFIRMQLWLNG the value was 0.079 ± 0.078; for QEVDTIELTRQVKEKLAKNGICQRIFGEKVLGLSQGSVSDMLWRPKPWSKLTQKGREPFIRMQLWLNG, -0.407 ± 0.072; for QEVDTIELTRQVKEKLAKNGICQRIFGEKVLGLSQGSVSDMLCRPKPWSKLTQKGREPFIRMQLWLNG, -0.153 ± 0.064. As for QEVDTIELTRQVKEKLAKNGICQRIFGEKVLGLSQGSVSDMLRRPKPWSKLTQKGREPFIRMQLWLNG, the abundance fitness is -0.125 ± 0.055. For QEVDTIELTRQVKEKLAKNGICQRIFGEKVLGLSQGSVSDMLARPKPWSKLTQKGREPFIRMQLWLNG the value was 0.007 ± 0.061. Under QEVDTIELTRQVKEKLAKNGICQRIFGEKVLGLSQGSVSDMQSRPKPWSKLTQKGREPFIRMQLWLNG stands -0.376 ± 0.088; under QEVDTIELTRQVKEKLAKNGICQRIFGEKVLGLSQGSVSDMKSRPKPWSKLTQKGREPFIRMQLWLNG, -0.04 ± 0.077; under QEVDTIELTRQVKEKLAKNGICQRIFGEKVLGLSQGSVSDMPSRPKPWSKLTQKGREPFIRMQLWLNG, -0.117 ± 0.066.

In the case of QEVDTIELTRQVKEKLAKNGICQRIFGEKVLGLSQGSVSDMWSRPKPWSKLTQKGREPFIRMQLWLNG, the abundance fitness is -0.134 ± 0.076.

Take QEVDTIELTRQVKEKLAKNGICQRIFGEKVLGLSQGSVSDMMSRPKPWSKLTQKGREPFIRMQLWLNG: the abundance fitness is -0.215 ± 0.089. QEVDTIELTRQVKEKLAKNGICQRIFGEKVLGLSQGSVSDMYSRPKPWSKLTQKGREPFIRMQLWLNG: the abundance fitness was -0.481 ± 0.076. Take QEVDTIELTRQVKEKLAKNGICQRIFGEKVLGLSQGSVSDMRSRPKPWSKLTQKGREPFIRMQLWLNG: the abundance fitness is -0.224 ± 0.052. For QEVDTIELTRQVKEKLAKNGICQRIFGEKVLGLSQGSVSDMISRPKPWSKLTQKGREPFIRMQLWLNG the value was -0.171 ± 0.091; for QEVDTIELTRQVKEKLAKNGICQRIFGEKVLGLSQGSVSDMGSRPKPWSKLTQKGREPFIRMQLWLNG, -0.275 ± 0.053; for QEVDTIELTRQVKEKLAKNGICQRIFGEKVLGLSQGSVSDMSSRPKPWSKLTQKGREPFIRMQLWLNG, -0.236 ± 0.048. Take QEVDTIELTRQVKEKLAKNGICQRIFGEKVLGLSQGSVSDMHSRPKPWSKLTQKGREPFIRMQLWLNG: the abundance fitness was -0.184 ± 0.084. Under QEVDTIELTRQVKEKLAKNGICQRIFGEKVLGLSQGSVSDMVSRPKPWSKLTQKGREPFIRMQLWLNG stands -0.264 ± 0.046. As for QEVDTIELTRQVKEKLAKNGICQRIFGEKVLGLSQGSVSDMTSRPKPWSKLTQKGREPFIRMQLWLNG, the abundance fitness is -0.424 ± 0.069.

Consider QEVDTIELTRQVKEKLAKNGICQRIFGEKVLGLSQGSVSDMNSRPKPWSKLTQKGREPFIRMQLWLNG, for which the abundance fitness is -0.405 ± 0.077.

(Values after the Human Domainome abundance scans (Beltran et al. 2025).)
